In paper PMC6430397, “The pharmacological properties of 3-arm or 4-arm DOTA constructs for conjugation to α-melanocyte-stimulating hormone analogues for melanoma imaging” (PLoS ONE, 2019):

What was measured:
[1] = Partition coefficient, n-octanol / 0.1 M phosphate buffer; type: physicochemical; details: shake-flask, 2.0 mL n-octanol / 2.0 mL 0.1 M phosphate buffer pH 7.4, room temperature, 20 uL radioactive sample, mixed twice 1 min, radioactivity counting; mean ± SD; read-out: Partition coefficient, log (n-octanol/0.1 M phosphate buffer)
Description: The partition coefficients of ^111In-labeled 3-arm and 4-arm DOTA-α-MSH were measured using 2.0 mL n-octanol as the organic phase and 2.0 mL 0.l M phosphate buffer as the aqueous phase (pH 7.4 for plasma). N-octanol and the buffer were pre-mixed twice using a mechanical mixer for 1 min at room temperature. Then, 20 µL radioactive sample were added and mixed twice using a mechanical mixer for 1 min at room temperature. The radioactivity of 200 uL of each phase was measured after centrifugation. Calculation of log (n-octanol/0.l M phosphate buffer) was performed.

[2] = Stability analysis in plasma, liver and kidney of mice, ex vivo TLC; parameters: species or system mouse; details: γ-counter, mean ± SD, n = 3 mice; for Fraction ratio of intact radiotracer, Plasma (%): B16-F1-bearing C57BL6 mice; for Fraction ratio of intact radiotracer, Plasma (%) / Fraction ratio of intact radiotracer, Liver (%): reverse-phase TLC; for Fraction ratio of intact radiotracer, Liver (%): liver homogenate
Description: All animal studies were conducted following approval by the Animal Care Committee of Kanazawa University (AP-122339). Fasted B16-F1-bearing C57BL6 male mice (5 weeks old) were administered ^111In-labeled 3-arm or 4-arm DOTA-α-MSH (3.7 MBq/mouse) via the tail vein. At 10, 30, 60, 120, and 180 min after injection, mice (n = 3 per time point) were euthanized with isoflurane, and blood and liver were collected and analyzed with thin layer chromatography (TLC). Briefly, 300 uL blood in a heparinized tube was centrifuged at 18,000 ×g at 4°C for 5 min. A total of 30 uL perchloric acid was added to the supernatant, which was centrifuged again, after which the final supernatant was spotted onto the TLC plate as plasma. Krebs-Ringer phosphate buffer (pH 7.4) was added to the liver samples, followed by homogenization with an ultrasonic homogenizer (SONIFIER250, Branson, MO, USA). Then, ethanol was added to the homogenate to remove proteins, and the sample was centrifuged at 18,000 ×g at 4°C for 5 min. The final supernatant was spotted onto the reverse-phase TLC plate, and the TLC spots were developed using 50 mM EDTA (pH 4–5) solvents. After development and complete drying, the TLC plates were cut into 21 fractions, and the radioactivity associated with each fraction was quantified using a γ-ray counter. The fraction ratios of ^111In^3+, ^111In-labeled 3-arm or 4-arm DOTA-α-MSH, and all metabolites were calculated by dividing the radioactive counts for each fraction by the total radioactivity counts.

[3] = tested on: B16-F1 melanoma-bearing mice; test: Biological distribution in B16-F1 melanoma-bearing mice; type: in vivo, mouse; details: for Melanoma-to-blood ratio / Melanoma-to-kidney ratio / Melanoma-to-muscle ratio: mean ± SD, four mice
Description: C57BL6 male mice (5 weeks old) were transplanted with B16-F1 cells (5 × 10^5 cells/100 μL) into the thigh of the mice. […] The mice were housed and continuously monitored each day for 2 weeks in a 12-hour light/12-hour dark cycle with free access to food and water. The tumor size reached 8.7 ± 2.8 mm at 2 weeks after transplant of cells. Two mice with tumor sizes of 13 and 15 mm were excluded from our experiments. Mice with a tumor size <10 mm were fasted with no food overnight with water supplied ad libitum before experiments.
For biological distribution studies, B16-F1-bearing mice were administered ^111In-labeled 3-arm or 4-arm DOTA-α-MSH via the tail vein (37 kBq/mouse). At 10, 30, 60, 120, and 180 min after injection, the mice were euthanized under isoflurane (n = 3 per time point), and the following tissues were collected: brain, lung, heart, stomach, liver, small intestine, large intestine, kidney, blood, muscle, and B16-F1 melanoma. Tissues were weighed, and radioactivity was quantified using an automated γ-ray counter to calculate the percent injected dose (%ID) or percent injected dose per gram of tissue (%ID/g).
For SPECT imaging, ^111In-labeled 3-arm or 4-arm DOTA-α-MSH was injected into the tail vein of four B16-F1-bearing mice in total (37 MBq/mouse). For SPECT imaging, acquisition was started at 10 min after injection and continued every 10 min for 180 min. The data were reconstructed using the ordered subset expectation maximization method with 16 subsets and six iterations including no scatter and attenuation correction. The voxel size was set to 0.8×0.8×0.8 mm. Post-reconstruction smoothing filtering was applied using a 1.0-mm Gaussian filter. […] In these images, three to five regions of interest were placed over the kidney, muscle, and B16-F1 melanoma in which accumulation could be seen, and the time activity curve of each was obtained as the %ID/g.

[4] = Stability analysis in plasma, liver and kidney of mice, ex vivo TLC; parameters: species or system mouse; details: γ-counter, mean ± SD, n = 3 mice
[5] = 10 min after i.v. injection 3.7 MBq/mouse
[6] = 30 min after i.v. injection 3.7 MBq/mouse
[7] = 60 min after i.v. injection 3.7 MBq/mouse
[8] = 120 min after i.v. injection 3.7 MBq/mouse
[9] = 180 min after i.v. injection 3.7 MBq/mouse
[10] = average over all acquisition time points

## CSCC[C@H](NC(=O)[C@H](CO)NC(=O)[C@H](Cc1ccc(O)cc1)NC(=O)[C@H](CO)NC(C)=O)C(=O)N[C@@H](CCC(=O)O)C(=O)N[C@@H](Cc1c[nH]cn1)C(=O)N[C@@H](Cc1ccccc1)C(=O)N[C@@H](CCCNC(=N)N)C(=O)N[C@@H](Cc1c[nH]c2ccccc12)C(=O)NCC(=O)N[C@@H](CCCCNC(=S)Nc1ccc(C[C@H]2CN(CC(=O)O)CCN(CC(=O)O)CCN(CC(=O)O)CCN2CC(=O)O)cc1)C(=O)N1CCC[C@H]1C(=O)N[C@H](C(=O)O)C(C)C [^111In-labeled 4-arm DOTA-α-MSH, metal not drawn]
[1]
  logD: -0.13 ± 0.04
[2]; [5]
  Fraction ratio of intact radiotracer, Plasma (%): 96.0 ± 2.5%
  Fraction ratio of intact radiotracer, Liver (%): 95.1 ± 2.9%
[2]; [6]
  Fraction ratio of intact radiotracer, Plasma (%): 95.8 ± 2.6%
  Fraction ratio of intact radiotracer, Liver (%): 94.9 ± 2.1%
[2]; 30 min after i.v. injection 3.7 MBq/mouse, kidney, TLC
  Fraction ratio of intact radiotracer, Kidney (%): 95.8 ± 1.9%
[2]; [7]
  Fraction ratio of intact radiotracer, Plasma (%): 92.1 ± 2.1%
  Fraction ratio of intact radiotracer, Liver (%): 91.3 ± 3.2%
[2]; [8]
  Fraction ratio of intact radiotracer, Plasma (%): 84.2 ± 2.2%
  Fraction ratio of intact radiotracer, Liver (%): 78.6 ± 4.9%
[2]; [9]
  Fraction ratio of intact radiotracer, Plasma (%): 80.8 ± 2.3%
  Fraction ratio of intact radiotracer, Liver (%): 76.2 ± 4.1%
[3]; 10 min after injection
  Melanoma-to-blood ratio: 0.55 ± 0.14
  Melanoma-to-kidney ratio: 0.13 ± 0.07
  Melanoma-to-muscle ratio: 22.20 ± 3.35
[3]; 30 min after injection
  Melanoma-to-blood ratio: 1.11 ± 0.28
  Melanoma-to-kidney ratio: 0.17 ± 0.11
  Melanoma-to-muscle ratio: 18.75 ± 4.45
[3]; 60 min after injection
  Melanoma-to-blood ratio: 3.31 ± 0.35
  Melanoma-to-kidney ratio: 0.41 ± 0.15
  Melanoma-to-muscle ratio: 41.75 ± 6.38
[3]; 120 min after injection
  Melanoma-to-blood ratio: 41.09 ± 4.78
  Melanoma-to-kidney ratio: 0.72 ± 0.18
  Melanoma-to-muscle ratio: 113.00 ± 7.33
[3]; 180 min after injection
  Melanoma-to-blood ratio: 155.81 ± 12.93
  Melanoma-to-kidney ratio: 0.93 ± 0.15
  Melanoma-to-muscle ratio: 155.81
[3]; 180 min after injection, listed as 4-arm DOTA-α-MSH
  Melanoma-to-muscle ratio: 155.81 ± 8.63
[3]; [10]
  Higher average accumulation in B16-F1 melanoma than 111In-labeled 3-arm DOTA-α-MSH: 1.32 fold
  Lower average accumulation in kidney than 111In-labeled 3-arm DOTA-α-MSH: 1.38 fold
[4]; [5]
  Fraction ratio of intact radiotracer, Kidney (%): 96.1 ± 2.0%
[4]; [7]
  Fraction ratio of intact radiotracer, Kidney (%): 93.3 ± 3.5%
[4]; [8]
  Fraction ratio of intact radiotracer, Kidney (%): 84.5 ± 3.3%
[4]; [9]
  Fraction ratio of intact radiotracer, Kidney (%): 80.5 ± 2.8%
